Experimental data taken from patent US20170247448A1 (INTRINSIC LIFESCIENCES, published 2017).
Numbering of substitutions follows the chain as printed. Blank lines part the entries; values can stand above or below the binder they belong to.

Legend:
[1] = target: T1, Human hepcidin peptide (hepcidin-25) (human); experiment: titration affinity ELISA, hepcidin 100 ng/well on Nunc Immobilizer Amino plate; antibody 0 ng/ml (blank)
T1 construct: Synthetic 25 aa peptide; also called hep-25; Hep-25
T1 peptide: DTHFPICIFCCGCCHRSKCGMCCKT
Procedure: (§1) FIGS. 17A-C. Titration affinity ELISA of humanized hits. FIG. 17A: Assay layout. CHO cells were seeded in 6 well plates, transfected with BAP070-01 (recombinant chimera), BAP070-01 humanized hits or vector only using BioAtla's transfection protocol and cultured at 37° C. in DMEM with 10% serum. Supernatants were collected at 48 hours post-transfection. Concentration of IgG in the supernatant was determined using BioAtla's quantitation ELISA. […] Vector only supernatant (column 7) was used as negative control. Bound antibodies were detected with anti-human IgG conjugated with HRP (1:2500). The reactions were stopped with 1 N HCl at 1.5 minutes after TMB was added to the wells and read immediately. OD 450 nm value of the reactions was measure with Molecular Device SPECTRAMAX® Plus. FIG. 17B: OD 450 nm value of the reactions measured with Molecular Device SPECTRAMAX® Plus. FIG. 17C: SOFTMAX® graph of […] data (Brown triangle: BAP070-01 recombinant chimeric antibody). X axis: Antibody concentration in ng/ml. Y axis: OD 450 nm values

[2] = target: T1, Human hepcidin peptide (hepcidin-25); experiment: titration affinity ELISA, hepcidin 100 ng/well on Nunc Immobilizer Amino plate, CHO supernatant; antibody 25 ng/ml
Procedure: as §1

[3] = target: T1, Human hepcidin peptide (hepcidin-25); experiment: titration affinity ELISA, hepcidin 100 ng/well on Nunc Immobilizer Amino plate, CHO supernatant; antibody 50 ng/ml
Procedure: as §1

[4] = target: T1, Human hepcidin peptide (hepcidin-25); experiment: titration affinity ELISA, hepcidin 100 ng/well on Nunc Immobilizer Amino plate, CHO supernatant; antibody 100 ng/ml
Procedure: as §1

[5] = target: T1, Human hepcidin peptide (hepcidin-25); experiment: titration affinity ELISA, hepcidin 100 ng/well on Nunc Immobilizer Amino plate, CHO supernatant; antibody 1.56 ng/ml
Procedure: as §1

[6] = target: T1, Human hepcidin peptide (hepcidin-25); experiment: titration affinity ELISA, hepcidin 100 ng/well on Nunc Immobilizer Amino plate, CHO supernatant; antibody 12.5 ng/ml
Procedure: as §1

[7] = target: T1, Human hepcidin peptide (hepcidin-25); experiment: titration affinity ELISA, hepcidin 100 ng/well on Nunc Immobilizer Amino plate, CHO supernatant; antibody 3.13 ng/ml
Procedure: as §1

[8] = target: T1, Human hepcidin peptide (hepcidin-25); experiment: titration affinity ELISA, hepcidin 100 ng/well on Nunc Immobilizer Amino plate, CHO supernatant; antibody 6.25 ng/ml
Procedure: as §1

B2: BAP070-hum01 (antibody, IgG1, V domains shown)
VH: QVQLVQSGAEVKKPGASVKVSCKASGYTFTNYGMNWVRQARGQRLEWIGWINTYTGEPTYADDFKGRLTISKDTSKNQVVLTMTNMDPVDTATYYCTTYATSWYWGQG
VL: DIQMTQSPSSLSASVGDRVTITCRASESVDSYGNSFMHWYQQKPGQAPRLLIYRASNLESGVPSRFSGSGSGTDFTFTISSLQPEDIATYYCQQSNEDLTFG
notes: Expressed as soluble IgG1 in CHO cells, tested as supernatant; The entries stop inside FR4 (...WGQG / ...FG); also called humanized hit 1
OD 450 nm [1]: 0.05 OD450
OD 450 nm [2]: 2.83 OD450
OD 450 nm [3]: 3.02 OD450
OD 450 nm [4]: 3.3 OD450
OD 450 nm [5]: 0.827 OD450
OD 450 nm [6]: 2.26 OD450
OD 450 nm [7]: 1.29 OD450
OD 450 nm [8]: 2.05 OD450

B3: BAP070-hum05 (antibody, IgG1, V domains shown)
VH: EVQLVQSGAEVKKPGESLRISCKGSGYTFTNYGMNWIRQPPGKGLEWIGWINTYTGEPTYADDFKGRVTISADKSISTAYLQWSSLKASDTAMYYCTTYATSWYWGQG
VL: B2 VL
notes: Expressed as soluble IgG1 in CHO cells, tested as supernatant; The entries stop inside FR4
OD 450 nm [1]: 0.037 OD450
OD 450 nm [2]: 2.63 OD450
OD 450 nm [3]: 2.85 OD450
OD 450 nm [4]: 3.11 OD450
OD 450 nm [5]: 0.59 OD450
OD 450 nm [6]: 1.94 OD450
OD 450 nm [7]: 0.949 OD450
OD 450 nm [8]: 1.48 OD450

B4: BAP070-hum04 (antibody, V domains shown)
VH: B2 VH
VL: AIQLTQSPSSLSASVGDRVTITCRASESVDSYGNSFMHWFQQRPGQSPRRLIYRASNLESGIPPRFSGSGYGTDFTLTINNIESEDAAYYFCQQSNEDLTFG
notes: as for B3
OD 450 nm [1]: 0.045 OD450
OD 450 nm [2]: 2.81 OD450
OD 450 nm [3]: 2.99 OD450
OD 450 nm [4]: 3.35 OD450
OD 450 nm [5]: 0.827 OD450
OD 450 nm [6]: 2.33 OD450
OD 450 nm [7]: 1.38 OD450
OD 450 nm [8]: 2 OD450

B7: BAP070-hum02 (antibody, IgG1, V domains shown)
VH: B2 VH
VL: AIQLTQSPSSLSASVGDRVTITCRASESVDSYGNSFMHWYQQKPGKAPKLLIYRASNLESGIPARFSGSGSGTEFTLTISSLQSEDFAVYYCQQSNEDLTFG
notes: as for B3
OD 450 nm [1]: 0.048 OD450
OD 450 nm [2]: 2.77 OD450
OD 450 nm [3]: 2.98 OD450
OD 450 nm [4]: 3.31 OD450
OD 450 nm [5]: 0.804 OD450
OD 450 nm [6]: 2.32 OD450
OD 450 nm [7]: 1.28 OD450
OD 450 nm [8]: 1.85 OD450

Continued, values first:

OD 450 nm [1]: 0.05 OD450
OD 450 nm [2]: 2.57 OD450
OD 450 nm [3]: 3 OD450
OD 450 nm [4]: 3.33 OD450
OD 450 nm [5]: 0.492 OD450
OD 450 nm [6]: 1.8 OD450
OD 450 nm [7]: 0.793 OD450
OD 450 nm [8]: 1.32 OD450
B1: BAP070-01 (human-mouse chimeric MAb 583) (antibody, human IgG1, kappa, V domains shown)
VH: QIQLVQSGPELKKPGETVKISCKASGYTFTNYGMNWVKQAPGKGLKWMGWINTYTGEPTYADDFKGRFAFSLETSASTAYLQINNLKNEDTATYFCTTYATSWYWGQGTLVTVSS
VL: DIVLTQSPASLAVSLGQRATISCRASESVDSYGNSFMHWYQQKPGQPPKLLIYRASNLESGIPARFSGSGSRTDFTLTINPVEADDVATYYCQQSNEDLTFGQGTKVEIKR
notes: used as CHO cell supernatant; also called BAP070-1

OD 450 nm [1]: 0.051 OD450
OD 450 nm [2]: 2.62 OD450
OD 450 nm [3]: 2.93 OD450
OD 450 nm [4]: 3.27 OD450
OD 450 nm [5]: 0.564 OD450
OD 450 nm [6]: 1.95 OD450
OD 450 nm [7]: 0.925 OD450
OD 450 nm [8]: 1.6 OD450
B5: BAP070-hum03 (antibody, IgG1, V domains shown)
VH: QVQLVQSGAEVKKPGASVKVSCKASGYTFTNYGMNWVRQATGQGLEWMGWINTYTGEPTYADDFKGRFVFSLDTSVSTAYLQICSLKAEDTAVYYCTTYATSWYWGQG
VL: B2 VL with D1A, M4L
notes: as for B3

OD 450 nm [1]: 0.042 OD450
OD 450 nm [2]: 2.69 OD450
OD 450 nm [3]: 3.06 OD450
OD 450 nm [4]: 3.25 OD450
OD 450 nm [5]: 0.75 OD450
OD 450 nm [6]: 2.12 OD450
OD 450 nm [7]: 1.15 OD450
OD 450 nm [8]: 1.68 OD450
B6: BAP070-hum06 (antibody, IgG1, V domains shown)
VH: B3 VH
VL: B2 VL with D1A, M4L
notes: as for B3
